“Also recorded” adds a separate entry of the source.
Assays:
Aβ25−35 = test: Thioflavin-T assay, Aβ25−35 aggregation (co-incubation); type: biochemical; details: 1:250 protein/Aβ25−35 molar ratio (4 μM / 1 mM), up to 72 h, 4°C, ThT read at 485 nm, n = 6
Description: The amyloid peptide Aβ25−35 was synthesized by conventional solid‐phase chemistry (Atherton & Sheppard, [1990]), and stored at −20°C. The peptide was resuspended in 1,1,1,3,3,3‐Hexafluoro‐2‐propanol (Sigma®, catalog number #105228), incubated for 1 h with gentle shaking at 4°C, then aliquoted and dried in speedVac for 20 min. The aliquots were stored under a vacuum glass bell. The day before being used, aliquots were resuspended in phosphate‐buffered saline (PBS) at a final concentration of 1 mM, incubated in a ultrasonic bath on ice for 30 min to induce aggregation, followed by gentle shaking at 4°C overnight. Aβ25−35 was diluted in culture medium at a final concentration of 30 μM for cell treatments. Aggregation of Aβ25−35 in the presence of ERp57 was obtained as follows: dried aliquots of Aβ25−35 were resuspended in PBS. […]
Thioflavin‐T assay was used to assess the aggregation of the Aβ25−35. […] The assay was performed using a spectrofluorometer Spex Fluoromax® at 25°C; the excitation wavelength was set at 440 nm (5 nm band width) and the fluorescence was measured between 450 and 520 nm (5 nm band width) (Francioso et al., [2020]).

pre‐aggregated Aβ25−35 = test: Thioflavin-T assay, reversal of pre-aggregated Aβ25−35; type: biochemical; details: Aβ25−35 aggregated alone 24 h, then 72 h with increasing concentrations of ERp57; n = 3
Description: Thioflavin‐T assay was used to assess the aggregation of the Aβ25−35. Thioflavin‐T (catalog number #T3516) was prepared in glycine buffer (0.05 M, pH 8.5) (catalog number #G8898), to a final concentration of 5 μM, in order to be saturated by Aβ25−35 (10 μM). Aβ25−35 was aggregated either alone or in the presence of 0.04 μM ERp57 or GST recombinant protein (in a 1:250 ratio). The assay was performed using a spectrofluorometer Spex Fluoromax® at 25°C; the excitation wavelength was set at 440 nm (5 nm band width) and the fluorescence was measured between 450 and 520 nm (5 nm band width) (Francioso et al., [2020]).
Having ascertained the ability of ERp57 to block the aggregation process, we wondered if the protein was able to reverse a preformed amyloid fibril into oligomeric/monomeric forms. To understand this, we aggregated Aβ25−35 alone for 24 h and then incubated it for 72 h in the presence of increasing concentrations of ERp57, assessing every 24 h the state of aggregation by thioflavin T assay (Figure 5c). […] Probably this phenomenon could be because of the fact that the presence of a protein capable of interacting with Aβ25−35 (given the previous experiments) can favor to the maintenance of Aβ25−35 in solution, facilitating the process of aggregation. […]

SH‐SY5Y cells = test: MTT cell viability assay; type: cell-based, human; details: MTT, n = 4
Description: For the cell viability experiments, 96‐well plates were seeded with 10 000 cells/well. After 24 h, cells were treated with 30 μM Aβ25−35 aggregated for 72 h in the presence or in the absence of 0.12 μM of ERp57 or GST recombinant proteins (in a 1:250 ratio), in a final volume of 150 μl per well. Plates were incubated for 24 h in an incubator at 37°C, 5% of CO2, and 99% RH. Thereafter, 20 μl of (3‐[4,5‐Dimethylthiazol‐2‐yl]‐2,5‐Diphenyltetrazolium Bromide) (MTT) dye (stock solution 5 mg/ml in PBS) (catalog number #M2003) was added to the wells and incubated for additional 2 h at 37°C and 5% CO2. Water‐insoluble formazan crystals were dissolved in 100 μl of DMSO (catalog number #472301). For spectrophotometric measurements, Appliscan® plate reader (Thermo scientific) was used at the wavelength 570 nm, with reference set at 690 nm.

α‐synuclein = details: 1:50 molar ratio; ref Serrano et al., [2020]; cited from earlier work
Text: We thus hypothesize that the mechanism by which ERp57 exerts its neuroprotective action resides in ERp57 impairment of peptide aggregation, rather than in disaggregation of existing fibrils. The inhibition of the aggregation was induced by low amounts of ERp57 protein, present in the reaction mixture in a very low molar ratio compared to the peptide (1:250), in line with the experiments conducted by Serr ...

c99 fragment of APP = details: c99 generated by β-secretase; ref Selivanova et al., [2007]; cited from earlier work
Text: (§1) As previously reported (Williams, [2006]), it is known that ERp57 together with calreticulin and calnexin forms a complex capable of interacting with glycoproteins, including APP, at the […] level, and therefore it can be hypothesized that the contact regions between ERp57 and APP are maintained at least in part also by Aβ, despite the cuts suffered by the secretases.

full‐length APP = details: permeabilized cells; ref Selivanova et al., [2007]; cited from earlier work
Text: as §1

Aβ peptide = details: cerebrospinal fluid of healthy people; ref Erickson et al., [2005]; cited from earlier work
Text: ERp57 is an endoplasmic reticulum disulfide isomerase which modulates folding of newly synthesized glycoproteins by recognizing and interacting with peptides or incorrectly folded proteins, thereby promoting formation of disulfide bonds and correct protein folding (Torres et al., [2015]). Conversely, Aβ is a small peptide that, because of its intrinsic characteristics, tends to aggregate and to escape the ER‐associated degradation process (ERAD) (Holtzman, [2013]). Eventually, monomeric Aβ is released out of the cell and begins its slow aggregation into fibrils that will form the template for ...

B1: ERp57: thiol oxidoreductase with Protein Disulfide Isomerase activity; human recombinant PDIA3 expressed in E. coli (protein)
chain: SDVLELTDDNFESRISDTGSAGLMLVEFFAPWCGHCKRLAPEYEAAATRLKGIVPLAKVDCTANTNTCNKYGVSGYPTLKIFRDGEEAGAYDGPRTADGIVSHLKKQAGPASVPLRTEEEFKKFISDKDASIVGFFDDSFSEAHSEFLKAASNLRDNYRFAHTNVESLVNEYDDNGEGIILFRPSHLTNKFEDKTVAYTEQKMTSGKIKKFIQENIFGICPHMTEDNKDLIQGKDLLIAYYDVDYEKNAKGSNYWRNRVMMVAKKFLDAGHKLNFAVASRKTFSHELSDFGLESTAGEIPVVAIRTAKGEKFVMQEEFSRDGKALERFLQDYFDGNLKRYLKSEPIPESNDGPVKVVVAENFDEIVNNENKDVLIEFYAPWCGHCKNLEPKYKELGEKLSKDPNIVIAKMDATANDVPSPYEVRGFPTIYFSPANKKLNPKKYEGGRELSDFISYLQREATNPPVIQEEKPKKKKKAQEDL
effect on Aβ25−35 aggregation (ThT fluorescence) (Aβ25−35): a marked reduction in the fluorescence signal; also recorded: completely blocks this process; also recorded: strongly reduced the aggregation of the peptide
ThT fluorescence intensity of pre-aggregated Aβ25−35 (pre‐aggregated Aβ25−35): increased in a dose‐dependent manner
reversal of preformed amyloid (pre‐aggregated Aβ25−35): not able to reverse the amyloid aggregation; also recorded: not able to disassemble pre‐aggregated Aβ25−35; also recorded: fails to disaggregate a fibril
cell viability (with Aβ25−35) (SH‐SY5Y cells; 30 μM Aβ25−35 aggregated 72 h with 0.12 μM protein (1:250), 24 h treatment): counteracts the toxic effects of Aβ25−35 and restores cellular viability; also recorded: significant increase in cell viability; also recorded: their viability was preserved
cell viability (protein alone) (SH‐SY5Y cells; protein alone, without Aβ25−35, 24 h): no effect on cell viability
effect on α-synuclein aggregation (α‐synuclein): able to reduce the aggregation of α‐synuclein in a very efficient manner
interaction with c99 fragment of APP (c99 fragment of APP): does not interact with the c99 fragment of APP
interaction with full-length APP (full‐length APP): interacts with full‐length APP
complex of ERp57 with Aβ (Aβ peptide): linked to Aβ in the cerebrospinal fluid of healthy people

From paper PMC9543391, “ERp57 chaperon protein protects neuronal cells from Aβ‐induced toxicity” (Journal of Neurochemistry, 2022)
